# How the values were obtained:
# Test in all cases: cell-based or functional assay
# [1] = target: Native ONCONASE (Rana pipiens)
# [2] = target: [Met-(-1)]rOnc (Rana pipiens)
# [3] = target: [Met-(-1)]rOncG20 (Rana pipiens)
# [4] = target: rEDN(1-21)rOnc (human; Rana pipiens)
# rEDN(1-21)rOncG26 = target: rEDN(1-21)rOncG26
# [5] = target: recombinant human eosinophil-derived neurotoxin (human)
substance,measurement,setting,value
Placental ribonuclease inhibitor (from UniProt P13489 2-461),"Fold Difference, (+)PRI against (-)PRI",[1],1.2 fold
same,"IC50 (ng/ml), (+)PRI, inhibition of protein synthesis in the rabbit reticulocyte lysate",[1],0.24 ng/mL
same,"Fold Difference, (+)PRI against (-)PRI",[2],1.4 fold
same,"IC50 (ng/ml), (+)PRI, inhibition of protein synthesis in the rabbit reticulocyte lysate",[2],140 ng/mL
same,"Fold Difference, (+)PRI against (-)PRI",[3],0.9 fold
same,"IC50 (ng/ml), (+)PRI, inhibition of protein synthesis in the rabbit reticulocyte lysate",[3],24 ng/mL
same,"IC50 (ng/ml), (+)PRI, inhibition of protein synthesis in the rabbit reticulocyte lysate",[4],3200 ng/mL
same,"Fold Difference, (+)PRI against (-)PRI",rEDN(1-21)rOncG26,21 fold
same,"IC50 (ng/ml), (+)PRI, inhibition of protein synthesis in the rabbit reticulocyte lysate",rEDN(1-21)rOncG26,600 ng/mL
same,"Fold Difference, (+)PRI against (-)PRI",[5],> 30.7 fold
same,"IC50 (ng/ml), (+)PRI, inhibition of protein synthesis in the rabbit reticulocyte lysate",[5],> 40 ng/mL

# Reference: patent EP0896625B1
